Measured values as given in the Human Domainome abundance scans (Beltran et al. 2025).
± gives the uncertainty stated by the source.

Test: abundance fitness (aPCA) (normalised: wild type 0, dead -1); higher = more abundant; growth selection in yeast, the domain comes from the species named
Settings: Homo sapiens

| Substance | abundance fitness |
| --- | --- |
| Lipoamide acyltransferase component of branched-chain alpha-keto acid dehydrogenase complex, mitochondrial P175V, P11182 | -0.029 ± 0.043 |
| Lipoamide acyltransferase component of branched-chain alpha-keto acid dehydrogenase complex, mitochondrial P175W, P11182 | -0.136 ± 0.042 |
| Lipoamide acyltransferase component of branched-chain alpha-keto acid dehydrogenase complex, mitochondrial P175Y, P11182 | -0.24 ± 0.066 |
| Lipoamide acyltransferase component of branched-chain alpha-keto acid dehydrogenase complex, mitochondrial Q212A, P11182 | 0.006 ± 0.036 |
| Lipoamide acyltransferase component of branched-chain alpha-keto acid dehydrogenase complex, mitochondrial Q212C, P11182 | -0.047 ± 0.052 |
| Lipoamide acyltransferase component of branched-chain alpha-keto acid dehydrogenase complex, mitochondrial Q212D, P11182 | -0.009 ± 0.13 |
| Lipoamide acyltransferase component of branched-chain alpha-keto acid dehydrogenase complex, mitochondrial Q212E, P11182 | 0.02 ± 0.043 |
| Lipoamide acyltransferase component of branched-chain alpha-keto acid dehydrogenase complex, mitochondrial Q212F, P11182 | -0.392 ± 0.11 |
| Lipoamide acyltransferase component of branched-chain alpha-keto acid dehydrogenase complex, mitochondrial Q212G, P11182 | 0.023 ± 0.034 |
| Lipoamide acyltransferase component of branched-chain alpha-keto acid dehydrogenase complex, mitochondrial Q212H, P11182 | 0.011 ± 0.065 |
| Lipoamide acyltransferase component of branched-chain alpha-keto acid dehydrogenase complex, mitochondrial Q212I, P11182 | -0.255 ± 0.089 |
| Lipoamide acyltransferase component of branched-chain alpha-keto acid dehydrogenase complex, mitochondrial Q212K, P11182 | 0.007 ± 0.061 |
| Lipoamide acyltransferase component of branched-chain alpha-keto acid dehydrogenase complex, mitochondrial Q212L, P11182 | -0.189 ± 0.043 |
| Lipoamide acyltransferase component of branched-chain alpha-keto acid dehydrogenase complex, mitochondrial Q212M, P11182 | -0.108 ± 0.049 |
| Lipoamide acyltransferase component of branched-chain alpha-keto acid dehydrogenase complex, mitochondrial Q212N, P11182 | 0.124 ± 0.14 |
| Lipoamide acyltransferase component of branched-chain alpha-keto acid dehydrogenase complex, mitochondrial Q212P, P11182 | -0.017 ± 0.036 |
| Lipoamide acyltransferase component of branched-chain alpha-keto acid dehydrogenase complex, mitochondrial Q212R, P11182 | 0.085 ± 0.042 |
| Lipoamide acyltransferase component of branched-chain alpha-keto acid dehydrogenase complex, mitochondrial Q212S, P11182 | 0.004 ± 0.04 |
| Lipoamide acyltransferase component of branched-chain alpha-keto acid dehydrogenase complex, mitochondrial Q212T, P11182 | 0.017 ± 0.06 |
| Lipoamide acyltransferase component of branched-chain alpha-keto acid dehydrogenase complex, mitochondrial Q212V, P11182 | -0.075 ± 0.038 |
| Lipoamide acyltransferase component of branched-chain alpha-keto acid dehydrogenase complex, mitochondrial Q212W, P11182 | -0.218 ± 0.046 |
| Lipoamide acyltransferase component of branched-chain alpha-keto acid dehydrogenase complex, mitochondrial Q212Y, P11182 | 0.108 ± 0.44 |
| Lipoamide acyltransferase component of branched-chain alpha-keto acid dehydrogenase complex, mitochondrial R178A, P11182 | -0.028 ± 0.043 |
| Lipoamide acyltransferase component of branched-chain alpha-keto acid dehydrogenase complex, mitochondrial R178C, P11182 | -0.173 ± 0.083 |

| Substance | abundance fitness |
| --- | --- |
| Lipoamide acyltransferase component of branched-chain alpha-keto acid dehydrogenase complex, mitochondrial R178D, P11182 | -0.626 ± 0.076 |
| Lipoamide acyltransferase component of branched-chain alpha-keto acid dehydrogenase complex, mitochondrial R178E, P11182 | -0.022 ± 0.053 |
| Lipoamide acyltransferase component of branched-chain alpha-keto acid dehydrogenase complex, mitochondrial R178F, P11182 | -0.261 ± 0.1 |
| Lipoamide acyltransferase component of branched-chain alpha-keto acid dehydrogenase complex, mitochondrial R178G, P11182 | -0.361 ± 0.046 |
| Lipoamide acyltransferase component of branched-chain alpha-keto acid dehydrogenase complex, mitochondrial R178H, P11182 | -0.1 ± 0.072 |
| Lipoamide acyltransferase component of branched-chain alpha-keto acid dehydrogenase complex, mitochondrial R178I, P11182 | 0.002 ± 0.059 |
| Lipoamide acyltransferase component of branched-chain alpha-keto acid dehydrogenase complex, mitochondrial R178K, P11182 | 0.051 ± 0.058 |
| Lipoamide acyltransferase component of branched-chain alpha-keto acid dehydrogenase complex, mitochondrial R178L, P11182 | -0.165 ± 0.038 |
| Lipoamide acyltransferase component of branched-chain alpha-keto acid dehydrogenase complex, mitochondrial R178M, P11182 | -0.035 ± 0.048 |
| Lipoamide acyltransferase component of branched-chain alpha-keto acid dehydrogenase complex, mitochondrial R178N, P11182 | -0.241 ± 0.071 |
| Lipoamide acyltransferase component of branched-chain alpha-keto acid dehydrogenase complex, mitochondrial R178P, P11182 | -1.38 ± 0.33 |
| Lipoamide acyltransferase component of branched-chain alpha-keto acid dehydrogenase complex, mitochondrial R178Q, P11182 | -0.024 ± 0.064 |
| Lipoamide acyltransferase component of branched-chain alpha-keto acid dehydrogenase complex, mitochondrial R178S, P11182 | -0.081 ± 0.057 |
| Lipoamide acyltransferase component of branched-chain alpha-keto acid dehydrogenase complex, mitochondrial R178T, P11182 | -0.114 ± 0.067 |
| Lipoamide acyltransferase component of branched-chain alpha-keto acid dehydrogenase complex, mitochondrial R178W, P11182 | -0.27 ± 0.053 |
| Lipoamide acyltransferase component of branched-chain alpha-keto acid dehydrogenase complex, mitochondrial R179A, P11182 | -0.048 ± 0.042 |
| Lipoamide acyltransferase component of branched-chain alpha-keto acid dehydrogenase complex, mitochondrial R179D, P11182 | -0.228 ± 0.11 |
| Lipoamide acyltransferase component of branched-chain alpha-keto acid dehydrogenase complex, mitochondrial R179E, P11182 | 0.011 ± 0.068 |
| Lipoamide acyltransferase component of branched-chain alpha-keto acid dehydrogenase complex, mitochondrial R179G, P11182 | -0.257 ± 0.038 |
| Lipoamide acyltransferase component of branched-chain alpha-keto acid dehydrogenase complex, mitochondrial R179H, P11182 | -0.368 ± 0.14 |
| Lipoamide acyltransferase component of branched-chain alpha-keto acid dehydrogenase complex, mitochondrial R179I, P11182 | -0.248 ± 0.059 |
| Lipoamide acyltransferase component of branched-chain alpha-keto acid dehydrogenase complex, mitochondrial R179K, P11182 | -0.021 ± 0.052 |
| Lipoamide acyltransferase component of branched-chain alpha-keto acid dehydrogenase complex, mitochondrial R179L, P11182 | -0.083 ± 0.042 |
| Lipoamide acyltransferase component of branched-chain alpha-keto acid dehydrogenase complex, mitochondrial R179M, P11182 | -0.087 ± 0.055 |
